Experimental data reported in patent publication EP2168984B1.

Experiments:
Experiment in all cases: cell-based or functional assay
murine IL-12 (mouse) = murine IL-12 (mouse) (UniProt P43431)
[1] = biological target: Rhesus IL-12 (rhesus monkey) (UniProt P48091)
[2] = biological target: recombinant human IL-12 (human) (UniProt P29459)
Baboon IL-12 (baboon) = biological target: Baboon IL-12 (baboon)
[3] = biological target: Cyno IL-12 (cynomolgus monkey)

murine IL-12 (mouse), sequence (P43431 23-215, chain 1 of 2): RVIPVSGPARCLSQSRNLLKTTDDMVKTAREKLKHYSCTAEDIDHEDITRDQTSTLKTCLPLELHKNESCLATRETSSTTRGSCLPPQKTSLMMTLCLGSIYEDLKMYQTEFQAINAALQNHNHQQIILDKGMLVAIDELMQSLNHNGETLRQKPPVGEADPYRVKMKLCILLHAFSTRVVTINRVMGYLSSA
murine IL-12 (mouse), sequence (P43432 23-335, chain 2 of 2, further chain): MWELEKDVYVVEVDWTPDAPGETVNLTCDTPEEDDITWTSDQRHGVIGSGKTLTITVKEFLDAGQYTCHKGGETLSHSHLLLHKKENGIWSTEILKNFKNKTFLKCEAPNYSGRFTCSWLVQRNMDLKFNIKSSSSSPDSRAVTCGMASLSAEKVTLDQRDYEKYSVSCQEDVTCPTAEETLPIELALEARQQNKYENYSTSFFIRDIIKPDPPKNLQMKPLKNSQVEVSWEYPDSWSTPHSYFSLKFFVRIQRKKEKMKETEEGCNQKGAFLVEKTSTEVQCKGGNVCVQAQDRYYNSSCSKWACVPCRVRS
recombinant human IL-12 (human), sequence (P29459 23-219, chain 1 of 2): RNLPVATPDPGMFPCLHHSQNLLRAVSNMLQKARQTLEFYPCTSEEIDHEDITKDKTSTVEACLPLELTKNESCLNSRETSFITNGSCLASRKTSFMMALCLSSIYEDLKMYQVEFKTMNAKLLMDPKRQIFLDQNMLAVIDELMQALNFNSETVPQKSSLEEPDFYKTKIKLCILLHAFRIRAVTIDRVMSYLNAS
recombinant human IL-12 (human), sequence (P29460 23-328, chain 2 of 2, further chain): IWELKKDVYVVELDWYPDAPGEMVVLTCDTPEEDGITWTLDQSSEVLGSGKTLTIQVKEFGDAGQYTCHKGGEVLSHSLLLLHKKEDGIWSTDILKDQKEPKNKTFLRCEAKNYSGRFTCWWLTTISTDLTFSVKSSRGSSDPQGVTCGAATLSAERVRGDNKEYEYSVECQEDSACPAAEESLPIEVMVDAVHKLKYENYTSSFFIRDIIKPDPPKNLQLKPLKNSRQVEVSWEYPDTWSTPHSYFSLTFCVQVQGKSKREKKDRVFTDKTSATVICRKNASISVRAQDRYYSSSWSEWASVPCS
Rhesus IL-12 (rhesus monkey), sequence (P48091 23-219, chain 1 of 2): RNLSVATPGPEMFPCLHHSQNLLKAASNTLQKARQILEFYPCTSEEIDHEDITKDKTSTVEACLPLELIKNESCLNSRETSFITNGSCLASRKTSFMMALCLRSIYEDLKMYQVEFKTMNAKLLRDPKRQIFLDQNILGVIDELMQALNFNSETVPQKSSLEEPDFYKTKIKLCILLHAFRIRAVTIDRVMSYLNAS
Rhesus IL-12 (rhesus monkey), sequence (P48095 23-328, chain 2 of 2, further chain): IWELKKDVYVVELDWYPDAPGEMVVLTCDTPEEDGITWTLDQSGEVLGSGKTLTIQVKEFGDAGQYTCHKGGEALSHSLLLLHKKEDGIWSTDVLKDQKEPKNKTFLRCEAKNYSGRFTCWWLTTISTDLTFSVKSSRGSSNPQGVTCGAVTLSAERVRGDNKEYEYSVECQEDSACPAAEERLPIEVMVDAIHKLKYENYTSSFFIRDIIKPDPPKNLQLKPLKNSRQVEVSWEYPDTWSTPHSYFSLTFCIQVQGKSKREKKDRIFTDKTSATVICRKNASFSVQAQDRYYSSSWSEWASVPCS

| IC50 (M), species cross reactivity bioassay (murine IL-12 (mouse)) | PHA blast Assay IC50 (murine IL-12 (mouse)) | IC50 (M), species cross reactivity bioassay [1] | IC50 (M), species cross reactivity bioassay [2] | IC50 (M), species cross reactivity bioassay (Baboon IL-12 (baboon)) | IC50 (M), species cross reactivity bioassay [3] | Substance |
| --- | --- | --- | --- | --- | --- | --- |
| 3e-11 M | 0.014 nM | – | – | – | – | C17.15 (antibody) |
| – | – | 1e-10 M | 5e-11 M | 2e-10 M | 1.2e-10 M | C8.6.2 (antibody) |
